Our source for the Kd values is publication PMC7642319, “Behavior control of membrane-less protein liquid condensates with metal ion-induced phase separation” (Nature Communications, 2020).

B1: ELEL mutant PRM peptide (four Lys residues mutated to acidic ELEL) (peptide)
chain: ELELTAPTPPKRS
B2: EE mutant PRM(H) peptide (two Lys residues mutated to acidic EE) (peptide)
chain: MEETPPPVPPRTTSK
B3: P7A mutant PRM(H) peptide (peptide)
chain: MKKTPPAVPPRTTSK
B4: P7A P9A double mutant PRM(H) peptide (peptide)
chain: MKKTPPAVAPRTTSK
B5: P9A mutant PRM(H) peptide (peptide)
chain: MKKTPPPVAPRTTSK
B6: PRM(H) peptide, wild type (peptide)
chain: MKKTPPPVPPRTTSK
B7: proline-rich motif (PRM) peptide, wild type (peptide)
chain: MKKKKTAPTPPKRS

This assay addresses T1, second SH3 domain from Nck.
T1 construct: second SH3 domain of Nck; The methods say that 6His-tagged proteins were purified on Ni-IDA and that the tag could be removed with TEV protease; also called free SH3; SH3 domain proteins; source: E. coli BL21 (DE3), pET-21a, purified (Ni-IDA)
Put plainly: ITC; SH3 domain in the cell, chemically synthesized peptide as titrant in the syringe; PBS pH 7.4, 25 °C; one-site binding model. To be noted: both partners purified. For orientation: Isothermal titration calorimetry measures the heat released or taken up as one component is titrated into another.
What is called Kd is the free concentration of one partner at which half of the binding sites on the other are occupied at equilibrium, for simple one-to-one binding. Read a low Kd as higher affinity. For B1, binding was characterised by a dissociation constant (Kd) of 121 µM. The figure for B2 is 3.32 µM; for B3 it is 19.4 µM; for B4 it is 131 µM. Turning to B5, binding was characterised by a dissociation constant (Kd) of 102 µM. In turn, B6 returned a Kd of 12.8 µM. This Kd is about 8-fold lower than that of the molecule before. As to B7, the Kd stood at 379 µM. This Kd lies about 30-fold higher than the previous one.
